Series [1] concerns the target T1, hNELF-E(mut) (human, UniProt P18615 1-380, E269N;D270K;M271V;P273E;T274D;L275F). Put plainly: fluorescence polarization; 10 mM HEPES-NaOH pH 7.5, 100 mM NaCl, 25 mM KCl, 1 mM MgCl2, 0.02% Tween-20, 0.01% IGEPAL CA-630, 10 µg/ml yeast tRNA; 2 nM RNA, 0-2000 nM protein, 1-2 h, binding temperature not stated; gel 5% acrylamide 0.5X TBE at 4 °C. The conditions noted are these: protein: recombinant; tags: N-terminal His6 (pHIS-parallel1); label: 3' fluorescein (5-thiosemicarbazide); hairpin with UCU bulge.

Series [2] concerns the target T2, dNELF-E(mut) (Drosophila, UniProt P92204 1-280, N173E;K174D;V175M;E177P;D178T;F179L).
T2 sequence: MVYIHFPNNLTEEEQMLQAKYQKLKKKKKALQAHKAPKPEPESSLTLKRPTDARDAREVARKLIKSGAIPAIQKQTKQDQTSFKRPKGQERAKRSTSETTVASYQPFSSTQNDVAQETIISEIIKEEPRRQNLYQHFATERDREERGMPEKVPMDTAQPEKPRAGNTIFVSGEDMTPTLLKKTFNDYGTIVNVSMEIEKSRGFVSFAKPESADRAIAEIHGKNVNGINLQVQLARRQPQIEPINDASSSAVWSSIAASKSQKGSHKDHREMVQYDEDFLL
Described as above. The conditions noted are these: protein: recombinant, tags: N-terminal His6 (pHIS-parallel1), label: 3' fluorescein (5-thiosemicarbazide).

The target in series [3] is T1, hNELF-E(mut). The series is described as follows: F-EMSA; 10 mM HEPES-NaOH pH 7.5, 100 mM NaCl, 25 mM KCl, 1 mM MgCl2, 0.02% Tween-20, 0.01% IGEPAL CA-630, 10 µg/ml yeast tRNA; 2 nM RNA, 0-2000 nM protein, 1-2 h, binding temperature not stated; gel 5% acrylamide 0.5X TBE at 4 °C. The conditions noted are these: protein: recombinant; tags: N-terminal His6 (pHIS-parallel1); label: 3' fluorescein (5-thiosemicarbazide); hairpin with UCU bulge. On the technique in general: Mobility shift assays separate free from complexed probe on a gel.

The target of series [4] is T2, dNELF-E(mut). Described as above. Conditions: protein: recombinant, tags: N-terminal His6 (pHIS-parallel1), label: 3' fluorescein (5-thiosemicarbazide).

T1 sequence (P18615 whole entry E269N/D270K/M271V/P273E/T274D/L275F): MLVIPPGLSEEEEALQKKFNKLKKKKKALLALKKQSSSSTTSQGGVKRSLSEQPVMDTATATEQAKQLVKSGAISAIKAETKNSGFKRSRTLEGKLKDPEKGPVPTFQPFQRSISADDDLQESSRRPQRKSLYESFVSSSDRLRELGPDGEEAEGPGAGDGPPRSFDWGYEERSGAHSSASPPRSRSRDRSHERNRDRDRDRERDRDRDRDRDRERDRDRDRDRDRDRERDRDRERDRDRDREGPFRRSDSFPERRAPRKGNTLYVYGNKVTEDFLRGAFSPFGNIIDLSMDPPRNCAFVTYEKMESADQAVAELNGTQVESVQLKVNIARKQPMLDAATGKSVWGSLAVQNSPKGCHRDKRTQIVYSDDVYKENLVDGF

B1: HIV-1 TAR+A (structured_RNA)
RNA: GGUCUCUCUGGUUAGACCAGAUCUGAGCCUGAGGAGCUCUCUGGCUAACUAGGGAACC
Usually Kd stands for the equilibrium constant for the complex coming apart. Regarding B1, the Kd in the series with hNELF-E(mut) [1] was determined as 170 ± 5 nM; with dNELF-E(mut) [2] (hairpin with UCU bulge), 120 ± 10 nM; in the series with hNELF-E(mut) [3] it was 233 ± 40 nM; with dNELF-E(mut) [4] (hairpin with UCU bulge), 280 ± 30 nM.

B2: HIV-1 TAR (structured_RNA)
RNA: GGUCUCUCUGGUUAGACCAGAUCUGAGCCUGGGAGCUCUCUGGCUAACUAGGGAACC
Regarding B2, the Kd in the series with hNELF-E(mut) [1] was 153 ± 7 nM; in the series with dNELF-E(mut) [2] (hairpin with UCU bulge), 130 ± 10 nM; with hNELF-E(mut) [3], 258 ± 17 nM; in the series with dNELF-E(mut) [4] (hairpin with UCU bulge), 270 ± 10 nM.

In the case of GGCCCCACUGAGGAUGCCCACGGGCGAUUGGGGCCA (structured_RNA) [Napt1min], the Kd in the series with dNELF-E(mut) [2] (putative K-turn stem-loop) came to 95 ± 6 nM; in the series with dNELF-E(mut) [4] (putative K-turn stem-loop) it was 350 ± 50 nM.

Source of the values: PMC3894171, “Defining NELF-E RNA Binding in HIV-1 and Promoter-Proximal Pause Regions”.
